Paper doi:10.1101/2022.06.30.497818

Target: GST-tagged CDK2 (human cyclin-dependent kinase 2, 1-298) (human) (UniProt P24941)
Experiment: SPR

Kd: 2.8 nM
Substance: Bovine cyclin A (171-432 with a C-terminal 6His tag) (from UniProt P30274 171-430) (domain or fragment)
